Measurements published in patent US20240238459.

B1: granzyme K (enzyme, UniProt P49863 27-264, looked up, species assumed)
Granzyme K: IIGGKEVSPHSRPFMASIQYGGHHVCGGVLIDPQWVLTAAHCQYRFTKGQSPTVVLGAHSLSKNEASKQTLEIKKFIPFSRVTSDPQSNDIMLVKLQTAAKLNKHVKMLHIRSKTSLRSGTKCKVTGWGATDPDSLRPSDTLREVTVTVLSRKLCNSQSYYNGDPFITKDMVCAGDAKGQKDSCKGDSGGPLICKGVFHAIVSGGHECGVATKPGIYTLLTKKYQTWIKSNLVPPHTN
B2: C1S (enzyme, UniProt P09871 16-688, looked up, species assumed)
Complement C1s subcomponent: EPTMYGEILSPNYPQAYPSEVEKSWDIEVPEGYGIHLYFTHLDIELSENCAYDSVQIISGDTEEGRLCGQRSSNNPHSPIVEEFQVPYNKLQVIFKSDFSNEERFTGFAAYYVATDINECTDFVDVPCSHFCNNFIGGYFCSCPPEYFLHDDMKNCGVNCSGDVFTALIGEIASPNYPKPYPENSRCEYQIRLEKGFQVVVTLRREDFDVEAADSAGNCLDSLVFVAGDRQFGPYCGHGFPGPLNIETKSNALDIIFQTDLTGQKKGWKLRYHGDPMPCPKEDTPNSVWEPAKAKYVFRDVVQITCLDGFEVVEGRVGATSFYSTCQSNGKWSNSKLKCQPVDCGIPESIENGKVEDPESTLFGSVIRYTCEEPYYYMENGGGGEYHCAGNGSWVNEVLGPELPKCVPVCGVPREPFEEKQRIIGGSDADIKNFPWQVFFDNPWAGGALINEYWVLTAAHVVEGNREPTMYVGSTSVQTSRLAKSKMLTPEHVFIHPGWKLLEVPEGRTNFDNDIALVRLKDPVKMGPTVSPICLPGTSSDYNLMDGDLGLISGWGRTEKRDRAVRLKAARLPVAPLRKCKEVKVEKPTADAEAYVFTPNMICAGGEKGMDSCKGDSGGAFAVQDPNDKTKFYAAGLVSWGPQCGTYGLYTRVKNYVDWIMKTMQENSTPRED

Tested on: T1, substrate sequence FVQWFSKFLGK (SEQ ID NO:3)
T1 sequence: FVQWFSKFLGK

Protein | protease specificity (cleavage activity; enzyme 5 nM, substrate 60 µM)
B1 | the substrate sequence is highly specific for granzyme B compared to the other proteases tested
B2 | the substrate sequence is highly specific for granzyme B compared to the other proteases tested
